From patent US20220119492A1 (MEDIKINE, published 2022)
Bridge positions count the residues as written; N and C are the ends. Ends that are not written are not given here.

Target: T1, human IL-2Rβ (CD122 protein, Fc Tag) (27-239) (human, UniProt P14784 27-239)
T1 construct: range 27-239; Bought protein; also called hu-IL-2Rβ subunit; IL-2Rβ subunit; not shown: Fc tag of the bought protein
T1 sequence (looked up): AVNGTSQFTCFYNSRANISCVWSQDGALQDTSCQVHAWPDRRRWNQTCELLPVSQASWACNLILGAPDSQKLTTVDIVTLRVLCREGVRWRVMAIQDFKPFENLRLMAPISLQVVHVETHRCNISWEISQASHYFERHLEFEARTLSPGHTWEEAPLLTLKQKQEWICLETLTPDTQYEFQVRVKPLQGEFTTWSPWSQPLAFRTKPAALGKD
Experiment: phage ELISA competition
In short: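 Values are IC50s derived from absorbance in a competitive binding ELISA, where a phage tracer competes with test ligands for human IL-2Rβ-Fc across a ligand dilution series. After 50 μL of phage tracer was added without washing for 45 min at 4° C, bound phage was detected with TMB for 1 to 15 min at 25° C. The reaction was then stopped and absorbance read at 450 nm.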

In the case of EFFHDCYVARVGELCDLFGW [SEQ ID NO 2876], the IC50 is reported as < 100 µM.

DWLPDCYFANVGDLCSLFGS [SEQ ID NO 2870] was tested, and the IC50 was < 100 µM.

VVCYACDIAHVGELCDLTCR [SEQ ID NO 2838] was tested, and the IC50 was < 100 µM.

With KWVHDCFLAKVGDVCDLFVV [SEQ ID NO 2860] the IC50 was < 100 µM.

For WQIFDCYLAQVGELCDLQDT (disulfide 6-15 (inferred)) [SEQ ID NO 2841], the IC50 was < 100 µM.

In the case of VTVQDCYFARVGDLCDLFSP [SEQ ID NO 2846], the IC50 is reported as < 100 µM.

With LVYYDCYMAQVGELCDLPSL (disulfide 6-15 (inferred)) [SEQ ID NO 2844] the IC50 was < 100 µM.

With HRGWVGWYPCEYALPGQLCDLE [SEQ ID NO 2831] the IC50 was < 100 µM.

WFPCWLAKVGELCDRDDLAGPS [SEQ ID NO 2815] was tested, and the IC50 was < 100 µM.

TPWYDCYIANVGDLCDFASA [SEQ ID NO 2839] was tested, and the IC50 was < 100 µM.

WYPCWMAKVGELCDME [SEQ ID NO 2824] was tested, and the IC50 was < 100 µM.

With EIFKDCLFANVGELCEIFPS [SEQ ID NO 2873] the IC50 was < 100 µM.

With NWLPDCLFANVGELCDIFPW [SEQ ID NO 2872] the IC50 was < 100 µM.

RYVPDCLKAQVGDLCDFFAW [SEQ ID NO 2822] was tested, and the IC50 was < 100 µM.

With SWLSDLQDCYIAQVGDLCQI [SEQ ID NO 2853] the IC50 was < 100 µM.

With ELLVDCFKVKVGELCDLFFG (disulfide 6-15 (inferred)) [SEQ ID NO 2858] the IC50 was < 100 µM.

In the case of RYVHDCFIAQVGDLCDLFLH [SEQ ID NO 2859], the IC50 is reported as < 100 µM.

For RYLYDCFLALVGDLCVKFHQ [SEQ ID NO 2862], the IC50 was < 100 µM.

In the case of SYLCWLDHWGVICEED [SEQ ID NO 2877], the IC50 is reported as < 100 µM.

With RAWWWPCELAQVGELCDLEPSS [SEQ ID NO 2820] the IC50 was < 100 µM.

QWFHNCFLARVGDTCDLFLW [SEQ ID NO 2857] was tested, and the IC50 was < 100 µM.

In the case of RGVYFPCWLAKVGDLCDSDEF [SEQ ID NO 2819], the IC50 is reported as < 100 µM.

YWCSVWQLGSVCEMNNEETQ [SEQ ID NO 2880] was tested, and the IC50 was < 100 µM.

With SMDQDCYFAQVGELCVLFNQ [SEQ ID NO 2849] the IC50 was < 100 µM.

QMVWWDCWSTQEGPVCELNWTA [SEQ ID NO 2879] was tested, and the IC50 was < 100 µM.

YSFKDCYFAKVGELCELFLW [SEQ ID NO 2875] was tested, and the IC50 was < 100 µM.

With DGWWPCWIAQVGELCDLEDPV [SEQ ID NO 2834] the IC50 was < 100 µM.

For WYPCWLAQVGELCDRE (disulfide 4-13 (inferred)) [SEQ ID NO 2818], the IC50 was < 100 µM.

In the case of LESLDCFFARIGDLCEIWDV [SEQ ID NO 2840], the IC50 is reported as < 100 µM.

LPFQDCYIAQVGELCDLPGT [SEQ ID NO 2835] was tested, and the IC50 was < 100 µM.

In the case of SRVWHPCWLARVGELCDLEVSD [SEQ ID NO 2829], the IC50 is reported as < 100 µM.

In the case of WLPCWIAKIGDLCDLD [SEQ ID NO 2828], the IC50 is reported as < 100 µM.

In the case of RSLVDCFLVKVGDLCDFFNW [SEQ ID NO 2861], the IC50 is reported as < 100 µM.

In the case of QFVKDCFLAQVGDLCELFLW [SEQ ID NO 2869], the IC50 is reported as < 100 µM.

With WWPCYLAQIGELCDLV [SEQ ID NO 2823] the IC50 was < 100 µM.

With AHFYDCFWAKAGELCDLWPS (disulfide 6-15 (inferred)) [SEQ ID NO 2863] the IC50 was < 100 µM.

With RLLRDCFLAKVGDLCELFVW [SEQ ID NO 2856] the IC50 was < 100 µM.

In the case of WYPCWLAKVGELCDQE [SEQ ID NO 2821], the IC50 is reported as < 100 µM.

With WTCWLTQLGYDCNLDVVDQSLG [SEQ ID NO 2881] the IC50 was < 100 µM.

WYTCMMDWLGVHCELE [SEQ ID NO 2878] was tested, and the IC50 was < 100 µM.

HGILDCYFAKVGELCELFDW [SEQ ID NO 2868] was tested, and the IC50 was < 100 µM.

SNWHDCLFAQVGELCDLPGS (disulfide 6-15 (inferred)) [SEQ ID NO 2851] was tested, and the IC50 was < 100 µM.

In the case of HWFLDCFLANVGDLCDFFGN [SEQ ID NO 2871], the IC50 is reported as < 100 µM.

With RLASDWWDCYIAKVGELCDF [SEQ ID NO 2855] the IC50 was < 100 µM.

For YRWWYPCDIAQVGELCDLDYLL [SEQ ID NO 2826], the IC50 was < 100 µM.

In the case of YDCYIAQVGELCDI [SEQ ID NO 2852], the IC50 is reported as < 100 µM.

WWPCEWARIGELCDLE (disulfide 4-13 (inferred)) [SEQ ID NO 2816] was tested, and the IC50 was < 100 µM.

In the case of NWFHDCFLARVGDLCDLFLD (disulfide 6-15 (inferred)) [SEQ ID NO 2874], the IC50 is reported as < 100 µM.

For WEHEFTWYPCWIAQVGELCDMD [SEQ ID NO 2830], the IC50 was < 100 µM.

WEWYDCLMAQVGELCDFEGN [SEQ ID NO 2847] was tested, and the IC50 was < 100 µM.

In the case of HWVRDCFLAKVGELCDLFLW [SEQ ID NO 2867], the IC50 is reported as < 100 µM.

VSRYDCYIAKVGELCDFFEF [SEQ ID NO 2845] was tested, and the IC50 was < 100 µM.

RWMFDCLFARVGELCDIRPW (disulfide 6-15 (inferred)) [SEQ ID NO 2836] was tested, and the IC50 was < 100 µM.

With QITDSGWYPCWVAKVGELCDMD (disulfide 10-19 (inferred)) [SEQ ID NO 2825] the IC50 was < 100 µM.

GGYYDCLIAEVGELCDMPGQ [SEQ ID NO 2837] was tested, and the IC50 was < 100 µM.

In the case of KGSSWFPCYFAQVGDLCDLY (disulfide 8-17 (inferred)) [SEQ ID NO 2817], the IC50 is reported as < 100 µM.

WGKLVRDCFLAKVGDLCDLFLW [SEQ ID NO 2865] was tested, and the IC50 was < 100 µM.

THVHDCFLAKVGDLCDLFIV [SEQ ID NO 2866] was tested, and the IC50 was < 100 µM.

With RVRRHSWWPCEIAVVGELCDLE [SEQ ID NO 2833] the IC50 was < 100 µM.

With WYPCWLAQLGELCDQDWDTPS [SEQ ID NO 2832] the IC50 was < 100 µM.

With GGYYDCLIAEVGELCDIYGR [SEQ ID NO 2850] the IC50 was < 100 µM.

With GRYPDCYIAHVGELCEFYDG [SEQ ID NO 2842] the IC50 was < 100 µM.

WAFYDCRNAQVGDFCDLWEF [SEQ ID NO 2848] was tested, and the IC50 was < 100 µM.
